From patent US20240247080A1, “GLP1/GIP/NPY2 RECEPTOR TRIPLE AGONISTS” (Boehringer Ingelheim International GmbH, priority 2022, published 2024)
Changes are numbered by the printed parent chain. Starred links: 1 amine or outer side, 2 acyl side, 3 side chain; linkers in the order of their positions; H or OH if unused. Non-standard residues stand in square brackets, D forms with d. Groups on a side chain read outwards from the residue. No end group written: not given here. *: point of attachment. C18 diacid = O=C(O)CCCCCCCCCCCCCCCCC(=O)*; γGlu = O=C(O)[C@H](CCC(=O)[*:2])N[*:1]; εLys = N[C@@H](CCCCN[*:1])C(=O)[*:2]; AEEA = NCCOCCOCC(=O)O; Aib = CC(C)(N)C(=O)O; Ahx = NCCCCCC(=O)O

T1: human neuropeptide Y2 receptor (human, UniProt P49146 1-381)
T1 sequence (looked up): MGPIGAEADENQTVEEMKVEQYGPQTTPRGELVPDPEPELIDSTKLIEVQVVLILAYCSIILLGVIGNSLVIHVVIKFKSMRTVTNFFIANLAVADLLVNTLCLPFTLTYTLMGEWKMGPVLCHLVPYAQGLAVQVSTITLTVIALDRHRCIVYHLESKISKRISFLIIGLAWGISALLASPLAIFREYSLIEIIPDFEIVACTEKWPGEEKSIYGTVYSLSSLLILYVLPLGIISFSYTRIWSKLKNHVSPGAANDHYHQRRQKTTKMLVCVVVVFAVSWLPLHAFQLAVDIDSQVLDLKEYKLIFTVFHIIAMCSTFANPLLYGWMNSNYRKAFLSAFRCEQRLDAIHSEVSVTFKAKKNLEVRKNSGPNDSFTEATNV

T2: human GIP receptor (human, UniProt P48546 22-466)
T2 sequence (looked up): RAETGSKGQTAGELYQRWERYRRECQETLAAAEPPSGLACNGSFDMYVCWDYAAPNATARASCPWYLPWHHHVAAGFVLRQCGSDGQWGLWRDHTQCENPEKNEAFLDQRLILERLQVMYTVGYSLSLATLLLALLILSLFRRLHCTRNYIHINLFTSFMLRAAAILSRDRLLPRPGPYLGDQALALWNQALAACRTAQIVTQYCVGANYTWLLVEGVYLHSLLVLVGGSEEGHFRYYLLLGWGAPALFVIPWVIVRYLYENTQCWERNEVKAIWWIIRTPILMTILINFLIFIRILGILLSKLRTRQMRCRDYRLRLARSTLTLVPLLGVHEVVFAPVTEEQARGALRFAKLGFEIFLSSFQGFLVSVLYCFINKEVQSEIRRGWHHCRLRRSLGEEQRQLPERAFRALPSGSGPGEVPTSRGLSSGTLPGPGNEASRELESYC

B1: Compound 138 (peptide)
peptide: Y[Aib]EGTFTSDYSI[Aib]LEKQAE[Aib]AFVQWLIK([εLys-γGlu-γGlu-γGlu-γGlu-γGlu-C18 diacid])GGPSEGASLRHYYNWLTRQRY-NH2
B2: Compound 126 (peptide)
peptide: Y[Aib]EGTFTSDYSI[Aib]LEKQAQ[Aib]AFVEWLIKGGPSSYASLRHYYNWLTRQRY-NH2
modifications: not fully specified (residue 28)
B3: Compound 121 (peptide)
peptide: YXEGTFTSDYSIXLESQAQXAFVEWLIKGGPSSGASLRHYYNWLTRQRY
modifications: Aib at 2, 13, 20; K28 side chain: C20DA-gGlu-gGlu-gGlu-gGlu-gGlu-gGlu-eLys; C-terminal NH2
B4: Compound 136 (peptide)
peptide: B3 peptide with S16K, Q17A
modifications: Aib at 2, 13, 20; K28 side chain: C20DA-gGlu-gGlu-gGlu-gGlu-gGlu-gGlu-eLys; C-terminal NH2
B5: Compound 132 (peptide)
peptide: B3 peptide with S16K, L37I
modifications: Aib at 2, 13, 20; K28 side chain: C20DA-gGlu-gGlu-gGlu-gGlu-gGlu-gGlu-eLys; C-terminal NH2
B6: Compound 140 (peptide)
peptide: B3 peptide with S16K, G34P
modifications: Aib at 2, 13, 20; K28 side chain: C18DA-gGlu-gGlu-gGlu-gGlu-gGlu-OEG-OEG; C-terminal NH2
B7: Compound 122 (peptide)
peptide: B3 peptide with S16K, S33E, G34P, A35E
modifications: Aib at 2, 13, 20; K28 side chain: C20DA-gGlu-gGlu-gGlu-gGlu-gGlu-gGlu-eLys; C-terminal NH2
B8: Compound 129 (peptide)
peptide: B3 peptide with S16K, R38X
modifications: Aib at 2, 13, 20, 38; K28 side chain: C20DA-gGlu-gGlu-gGlu-gGlu-gGlu-gGlu-eLys; C-terminal NH2
B9: Compound 130 (peptide)
peptide: B3 peptide with S16K, V23I
modifications: Aib at 2, 13, 20; K28 side chain: C20DA-gGlu-gGlu-gGlu-Glu-gGlu-gGlu-eLys; C-terminal NH2
B10: Compound 135 (peptide)
peptide: B3 peptide with S16K, W25Y
modifications: Aib at 2, 13, 20; K28 side chain: C20DA-gGlu-gGlu-gGlu-gGlu-gGlu-gGlu-eLys; C-terminal NH2
B11: Compound 131 (peptide)
peptide: B3 peptide with S16R
modifications: Aib at 2, 13, 20; K28 side chain: C20DA-gGlu-gGlu-gGlu-gGlu-gGlu-gGlu-eLys; C-terminal NH2
B12: Compound 123 (peptide)
peptide: B3 peptide with S16K, P31Q
modifications: Aib at 2, 13, 20; K28 side chain: C20DA-gGlu-gGlu-gGlu-gGlu-gGlu-gGlu-eLys; C-terminal NH2
B13: Compound 124 (peptide)
peptide: B3 peptide with S16Q
modifications: Aib at 2, 13, 20; K28 side chain: C20DA-gGlu-gGlu-gGlu-gGlu-Glu-gGlu-eLys; C-terminal NH2
B14: Compound 142 (peptide)
peptide: B3 peptide with S16K, E24Q, S33E, G34P
modifications: Aib at 2, 13, 20; K28 side chain: C18DA-gGlu-gGlu-gGlu-gGlu-gGlu-OEG-OEG; C-terminal NH2
B15: Compound 127 (peptide)
peptide: B3 peptide with S16K, A35E
modifications: Aib at 2, 13, 20; K28 side chain: C20DA-gGlu-gGlu-gGlu-gGlu-gGlu-gGlu-eLys; C-terminal NH2
B16: Compound 133 (peptide)
peptide: B3 peptide with S16K, Y41X
modifications: Aib at 2, 13, 20; Tle at 41; K28 side chain: C20DA-gGlu-gGlu-gGlu-gGlu-gGlu-gGlu-eLys; C-terminal NH2
B17: Compound 125 (peptide)
peptide: B3 peptide with S16K, E24Q, S33E
modifications: Aib at 2, 13, 20; NMeR at 48; K28 side chain: C20DA-gGlu-gGlu-gGlu-gGlu-gGlu-gGlu-eLys; C-terminal NH2
B18: Compound 141 (peptide)
peptide: B3 peptide with S16K, A21E, E24Q, S33E
modifications: Aib at 2, 13, 20; K28 side chain: C18DA-gGlu-gGlu-gGlu-gGlu-gGlu; C-terminal NH2
B19: Compound 128 (peptide)
peptide: B3 peptide with E15D, S16K
modifications: Aib at 2, 13, 20; K28 side chain: C20DA-gGlu-gGlu-gGlu-gGlu-gGlu-gGlu-eLys; C-terminal NH2
B20: Compound 134 (peptide)
peptide: B3 peptide with S16K, S33E, A35Q, L37I
modifications: Aib at 2, 13, 20; K28 side chain: C20DA-gGlu-gGlu-gGlu-gGlu-gGlu-gGlu-eLys; C-terminal NH2
B21: Compound 137 (peptide)
peptide: B3 peptide with S16K, L44X
modifications: Aib at 2, 13, 20; Tle at 44; K28 side chain: C20DA-gGlu-gGlu-gGlu-gGlu-gGlu-gGlu-eLys; C-terminal NH2
B22: Compound 143 (peptide)
peptide: Y[Aib]EGTFTSDYSI[Aib]LEKQAQ[Aib]AFVQWLIK([εLys-γGlu-γGlu-γGlu-γGlu-γGlu-C18 diacid])GGPEEGASLRHYYNWLTRQRY-NH2
B23: Compound 144 (peptide)
peptide: Y[Aib]EGTFTSDYSI[Aib]LEKQAQ[Aib]AFVQWLIK([AEEA-AEEA-γGlu-γGlu-γGlu-C18 diacid])GGPEEGASLRHYYNWLTRQRY-NH2
B24: Compound 139 (peptide)
peptide: Y[Aib]EGTFTSDYSI[Aib]LEKQAQ[Aib]AFVQWLIK([Ahx-γGlu-γGlu-γGlu-γGlu-γGlu-γGlu-C18 diacid])GGPSSGASLRHYYNWLTRQRY-NH2

Target: T1, human neuropeptide Y2 receptor
Test: cell-based or functional assay

EC50 CreLuc hNPY2R 0.5% hP [nM] | EC50 CreLuc hNPY2R 100% hP [nM] | Binder
18.3 | 28.4 | B1
15.1 | 41.8 | B2
23.8 | 88.9 | B3
15.1 | 64.7 | B4
11.3 | 45.4 | B5
12.4 | 45.9 | B6
26.3 | 78.9 | B7
30.9 | 87.6 | B8
18 | 54.8 | B9
8.4 | 21.5 | B10
18.2 | 71.5 | B11
6.12 | 31.3 | B12
16.2 | 39.9 | B13
12.9 | 28.2 | B14
13.2 | 66.3 | B15
14.1 | 41.4 | B16
30.9 | 99.3 | B17
11.8 | 35.2 | B18
24.8 | 51.9 | B19
10.1 | 40 | B20
60.2 | 93 | B21
13.1 | 42.2 | B22
15.8 | 48.7 | B23
18.3 | 43.2 | B24

Target: human GLP-1 receptor (human, UniProt P43220 24-463)
Test: cell-based or functional assay

EC50 CreLuc hGLP1R 0.5% hP [nM] | EC50 CreLuc hGLP1R 100% hP [nM] | Binder
0.19 | 5.09 | B1
0.18 | 3.36 | B2
0.18 | 7.09 | B3
0.32 | 4.19 | B4
0.14 | 3.76 | B5
0.12 | 3.11 | B6
0.22 | 4.97 | B7
0.04 | 0.85 | B8
0.13 | 1.18 | B9
0.24 | 2.3 | B10
0.11 | 2.84 | B11
0.24 | 7.88 | B12
0.11 | 1.95 | B13
0.12 | 3.34 | B14
0.04 | 1.6 | B15
0.16 | 3.01 | B16
0.23 | 2.85 | B17
0.25 | 7.93 | B18
0.4 | 3.7 | B19
0.1 | 3.94 | B20
0.12 | 2.22 | B21
0.13 | 4.24 | B22
0.16 | 5.59 | B23
0.07 | 1.62 | B24

Target: T2, human GIP receptor
Test: cell-based or functional assay

EC50 CreLuc hGIPR 0.5% hP [nM] | EC50 CreLuc hGIPR 100% hP [nM] | Binder
0.13 | 0.81 | B1
0.1 | 1.27 | B2
0.65 | 7.29 | B3
0.31 | 2.03 | B4
0.22 | 2.07 | B5
0.22 | 1.2 | B6
0.08 | 1.53 | B7
0.06 | 0.5 | B8
0.11 | 0.98 | B9
0.11 | 1.07 | B10
0.35 | 2.94 | B11
0.42 | 4.11 | B12
0.26 | 0.89 | B13
0.28 | 1.15 | B14
0.05 | 0.84 | B15
0.48 | 2.28 | B16
0.28 | 1.72 | B17
0.4 | 1.32 | B18
0.11 | 0.9 | B19
0.09 | 0.83 | B20
0.28 | 1.5 | B21
0.22 | 0.67 | B22
1.15 | 0.79 | B23
0.22 | 1.04 | B24
